Columns and labels:
[1] = target: CD4-mimetic miniprotein M48U1; experiment: SPR
[2] = target: full-length HIV-1 gp120 from the clade B YU2 strain (HIV-1 (clade B, strain YU2)) (UniProt P35961); experiment: SPR

Substance	Kd [1]	Kd [2]	koff [2]	kon [2]
full-length HIV-1 gp120 from the clade B YU2 strain (from UniProt P35961 32-498) (natural protein)	14 pM			
CD4-mimetic miniprotein M48U7 (designed binder)		180 pM	0.000446 s⁻¹	2.42e+06 M⁻¹ s⁻¹
CD4-mimetic miniprotein M48U1 (designed binder)		15.4 pM		

Reference: paper PMC4140785
